Results: paper PMC5575113 (2017)
Where a chain is given by its changes, count along the chain named.

B1: GroES^7 (other)
chain: MNIRPLHDRVIVKRKEVETKSAGGIVLTGSAAAKSTRGEVLAVGNGRILENGEVKPLDVKVGDIVIFNDGYGVKSEKIDNEEVLIMSESDILAIVEAMNIRPLHDRVIVKRKEVETKSAGGIVLTGSAAAKSTRGEVLAVGNGRILENGEVKPLDVKVGDIVIFNDGYGVKSEKIDNEEVLIMSESDILAIVEAMNIRPLHDRVIVKRKEVETKSAGGIVLTGSAAAKSTRGEVLAVGNGRILENGEVKPLDVKVGDIVIFNDGYGVKSEKIDNEEVLIMSESDILAIVEAMNIRPLHDRVIVKRKEVETKSAGGIVLTGSAAAKSTRGEVLAVGNGRILENGEVKPLDVKVGDIVIFNDGYGVKSEKIDNEEVLIMSESDILAIVEAMNIRPLHDRVIVKRKEVETKSAGGIVLTGSAAAKSTRGEVLAVGNGRILENGEVKPLDVKVGDIVIFNDGYGVKSEKIDNEEVLIMSESDILAIVEAMNIRPLHDRVIVKRKEVETKSAGGIVLTGSAAAKSTRGEVLAVGNGRILENGEVKPLDVKVGDIVIFNDGYGVKSEKIDNEEVLIMSESDILAIVEAMNIRPLHDRVIVKRKEVETKSAGGIVLTGSAAAKSTRGEVLAVGNGRILENGEVKPLDVKVGDIVIFNDGYGVKSEKIDNEEVLIMSESDILAIVEA
modifications: DyLight 650 NHS ester on amines (for MST)
B2: GroES^7I25D1,2 (other)
chain: B1 chain with I25D, I122D
modifications: DyLight 650 NHS ester on amines (for MST)
B3: GroES^7I25A1,4 (other)
chain: B1 chain with I25A, I316A
modifications: DyLight 650 NHS ester on amines (for MST)

The binders below were run against GroEL^SR (GroEL R452A/E461A/S463A/V464A) (E. coli, UniProt P0A6F5 1-548, R452A | E461A | S463A | V464A) (assay: MST).

Binder | Kd [nM]
B1 | 4.54
B2 | 38.7
B3 | 51.3

Each binder was assayed against GroEL (E. coli, UniProt P0A6F5 1-548) (assay: MST).

Binder | Kd [nM]
B1 | 3.05
B2 | 9.24
B3 | 8.99
